Experimental data published in the supplement of paper PMC10567573.

B1: C10orf62 (parent)
chain: RALEEVEMKLQKNFLTQRENTIAG

Variants of: B1
Experiment: protein stability index of a GFP-peptide fusion (GPS, HEK-293T) (PSI 1-6); higher = more stable
Conditions: c terminus: a fixed tail appended
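Note: lentivirally expressed fusions sorted by FACS into six bins by GFP to DsRed ratio, PSI derived from sequencing read proportions per bin multiplied by bin number.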

First: RADEEVEMKLQKNFLTQRENTIAG [L3D]
Second: RAMEEVEMKLQKNFLTQRENTIAG [L3M]
The protein stability index of the first is higher: 4.8 for the first, 3.86 for the second.

First: RAGEEVEMKLQKNFLTQRENTIAG [L3G]
Second: RAFEEVEMKLQKNFLTQRENTIAG [L3F]
The protein stability index of the first is higher: 4.31 for the first, 4.04 for the second.

First: RAIEEVEMKLQKNFLTQRENTIAG [L3I]
Second: RAPEEVEMKLQKNFLTQRENTIAG [L3P]
The protein stability index of the first is lower: 4.17 for the first, 4.26 for the second.

Going from RAVEEVEMKLQKNFLTQRENTIAG [L3V] to RANEEVEMKLQKNFLTQRENTIAG [L3N], the protein stability index rises from 4.27 to 4.91.

Going from RAHEEVEMKLQKNFLTQRENTIAG [L3H] to RAWEEVEMKLQKNFLTQRENTIAG [L3W], the protein stability index falls from 4.34 to 2.95.

First: RAQEEVEMKLQKNFLTQRENTIAG [L3Q]
Second: RAREEVEMKLQKNFLTQRENTIAG [L3R]
The protein stability index of the first is higher: 4.47 for the first, 4.09 for the second.

First: RAAEEVEMKLQKNFLTQRENTIAG [L3A]
Second: RAKEEVEMKLQKNFLTQRENTIAG [L3K]
The protein stability index of the first is lower: 4.17 for the first, 4.33 for the second.

Going from RACEEVEMKLQKNFLTQRENTIAG [L3C] to RASEEVEMKLQKNFLTQRENTIAG [L3S], the protein stability index rises from 4.02 to 4.05.

Compared with RATEEVEMKLQKNFLTQRENTIAG [L3T], RAYEEVEMKLQKNFLTQRENTIAG [L3Y] is lower in protein stability index: 4.12 for the first, 3.5 for the second.

First: RAEEEVEMKLQKNFLTQRENTIAG [L3E]
Second: RTLEEVEMKLQKNFLTQRENTIAG [A2T]
The protein stability index of the first is higher: 5.08 for the first, 3.83 for the second.

Compared with RNLEEVEMKLQKNFLTQRENTIAG [A2N], RPLEEVEMKLQKNFLTQRENTIAG [A2P] is higher in protein stability index: 3.89 for the first, 4.4 for the second.

Compared with RMLEEVEMKLQKNFLTQRENTIAG [A2M], RRLEEVEMKLQKNFLTQRENTIAG [A2R] is higher in protein stability index: 2.6 for the first, 3.61 for the second.

First: RKLEEVEMKLQKNFLTQRENTIAG [A2K]
Second: RDLEEVEMKLQKNFLTQRENTIAG [A2D]
The protein stability index of the first is lower: 3.7 for the first, 4.1 for the second.

First: RWLEEVEMKLQKNFLTQRENTIAG [A2W]
Second: RQLEEVEMKLQKNFLTQRENTIAG [A2Q]
The protein stability index of the first is lower: 2.29 for the first, 4.32 for the second.

Going from RLLEEVEMKLQKNFLTQRENTIAG [A2L] to RGLEEVEMKLQKNFLTQRENTIAG [A2G], the protein stability index rises from 2.61 to 4.1.

Compared with RCLEEVEMKLQKNFLTQRENTIAG [A2C], RVLEEVEMKLQKNFLTQRENTIAG [A2V] is lower in protein stability index: 3.27 for the first, 2.96 for the second.

Going from RYLEEVEMKLQKNFLTQRENTIAG [A2Y] to RILEEVEMKLQKNFLTQRENTIAG [A2I], the protein stability index falls from 2.98 to 2.66.

Going from RFLEEVEMKLQKNFLTQRENTIAG [A2F] to RELEEVEMKLQKNFLTQRENTIAG [A2E], the protein stability index rises from 2.54 to 4.41.

Compared with RHLEEVEMKLQKNFLTQRENTIAG [A2H], RSLEEVEMKLQKNFLTQRENTIAG [A2S] is higher in protein stability index: 3.55 for the first, 3.9 for the second.

Compared with RALETVEMKLQKNFLTQRENTIAG [E5T], RALELVEMKLQKNFLTQRENTIAG [E5L] is lower in protein stability index: 3.02 for the first, 2 for the second.

Going from RALEMVEMKLQKNFLTQRENTIAG [E5M] to RALEQVEMKLQKNFLTQRENTIAG [E5Q], the protein stability index rises from 2.23 to 3.22.

First: RALENVEMKLQKNFLTQRENTIAG [E5N]
Second: RALEWVEMKLQKNFLTQRENTIAG [E5W]
The protein stability index of the first is higher: 3.98 for the first, 1.85 for the second.

Going from RALEVVEMKLQKNFLTQRENTIAG [E5V] to RALEGVEMKLQKNFLTQRENTIAG [E5G], the protein stability index rises from 1.51 to 3.6.

Compared with RALEDVEMKLQKNFLTQRENTIAG [E5D], RALEAVEMKLQKNFLTQRENTIAG [E5A] is lower in protein stability index: 3.67 for the first, 2.7 for the second.

Compared with RALEIVEMKLQKNFLTQRENTIAG [E5I], RALEPVEMKLQKNFLTQRENTIAG [E5P] is higher in protein stability index: 1.93 for the first, 3.19 for the second.

Compared with RALEKVEMKLQKNFLTQRENTIAG [E5K], RALEYVEMKLQKNFLTQRENTIAG [E5Y] is lower in protein stability index: 3.76 for the first, 2.27 for the second.

Going from RALESVEMKLQKNFLTQRENTIAG [E5S] to RALEHVEMKLQKNFLTQRENTIAG [E5H], the protein stability index falls from 3.51 to 3.02.

Compared with RALERVEMKLQKNFLTQRENTIAG [E5R], RALECVEMKLQKNFLTQRENTIAG [E5C] is lower in protein stability index: 3.12 for the first, 2.21 for the second.

Compared with RALEFVEMKLQKNFLTQRENTIAG [E5F], RALEEVAMKLQKNFLTQRENTIAG [E7A] is lower in protein stability index: 2.11 for the first, 2.02 for the second.

First: RALEEVTMKLQKNFLTQRENTIAG [E7T]
Second: RALEEVSMKLQKNFLTQRENTIAG [E7S]
The protein stability index of the first is lower: 2.6 for the first, 2.97 for the second.

First: RALEEVMMKLQKNFLTQRENTIAG [E7M]
Second: RALEEVKMKLQKNFLTQRENTIAG [E7K]
The protein stability index of the first is lower: 1.33 for the first, 1.96 for the second.

Compared with RALEEVHMKLQKNFLTQRENTIAG [E7H], RALEEVVMKLQKNFLTQRENTIAG [E7V] is lower in protein stability index: 2.17 for the first, 1.27 for the second.

Going from RALEEVGMKLQKNFLTQRENTIAG [E7G] to RALEEVIMKLQKNFLTQRENTIAG [E7I], the protein stability index rises from 2.84 to 3.36.

Compared with RALEEVYMKLQKNFLTQRENTIAG [E7Y], RALEEVPMKLQKNFLTQRENTIAG [E7P] is higher in protein stability index: 2.38 for the first, 3.98 for the second.

First: RALEEVDMKLQKNFLTQRENTIAG [E7D]
Second: RALEEVCMKLQKNFLTQRENTIAG [E7C]
The protein stability index of the first is higher: 3.69 for the first, 1.8 for the second.

Going from RALEEVQMKLQKNFLTQRENTIAG [E7Q] to RALEEVFMKLQKNFLTQRENTIAG [E7F], the protein stability index falls from 3.35 to 2.17.

Compared with RALEEVRMKLQKNFLTQRENTIAG [E7R], RALEEVNMKLQKNFLTQRENTIAG [E7N] is higher in protein stability index: 2.29 for the first, 3.61 for the second.

First: TALEEVEMKLQKNFLTQRENTIAG [R1T]
Second: VALEEVEMKLQKNFLTQRENTIAG [R1V]
The protein stability index of the first is higher: 4.32 for the first, 3.1 for the second.

Compared with DALEEVEMKLQKNFLTQRENTIAG [R1D], HALEEVEMKLQKNFLTQRENTIAG [R1H] is lower in protein stability index: 4.49 for the first, 3.69 for the second.

Compared with KALEEVEMKLQKNFLTQRENTIAG [R1K], YALEEVEMKLQKNFLTQRENTIAG [R1Y] is lower in protein stability index: 3.6 for the first, 3.29 for the second.

Compared with PALEEVEMKLQKNFLTQRENTIAG [R1P], WALEEVEMKLQKNFLTQRENTIAG [R1W] is lower in protein stability index: 4.55 for the first, 3.15 for the second.

First: LALEEVEMKLQKNFLTQRENTIAG [R1L]
Second: GALEEVEMKLQKNFLTQRENTIAG [R1G]
The protein stability index of the first is lower: 2.54 for the first, 4.34 for the second.

First: MALEEVEMKLQKNFLTQRENTIAG [R1M]
Second: EALEEVEMKLQKNFLTQRENTIAG [R1E]
The protein stability index of the first is lower: 3.33 for the first, 4.39 for the second.

First: AALEEVEMKLQKNFLTQRENTIAG [R1A]
Second: QALEEVEMKLQKNFLTQRENTIAG [R1Q]
The protein stability index of the first is higher: 3.89 for the first, 3.5 for the second.

First: IALEEVEMKLQKNFLTQRENTIAG [R1I]
Second: FALEEVEMKLQKNFLTQRENTIAG [R1F]
The protein stability index of the first is lower: 2.91 for the first, 3.17 for the second.

First: CALEEVEMKLQKNFLTQRENTIAG [R1C]
Second: SALEEVEMKLQKNFLTQRENTIAG [R1S]
The protein stability index of the first is lower: 1.89 for the first, 3.85 for the second.

Compared with NALEEVEMKLQKNFLTQRENTIAG [R1N], RALEEVEMDLQKNFLTQRENTIAG [K9D] is lower in protein stability index: 4.37 for the first, 4.13 for the second.
